The series can be described thus: protein stability index of a GFP-peptide fusion (GPS, HEK-293T) (PSI 1-6); higher = more stable. To be noted: c terminus: a fixed tail appended.

± gives the standard deviation.
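Also: 24-mer peptide tiles fused after GFP, lentivirally expressed, FACS-sorted into six equal bins by GFP/DsRed ratio, decoded by Illumina sequencing, PSI is the read-weighted mean bin number.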

On to DARDEELEKDTMDNWDEKKLEEVV [ZC3H15], for which the protein stability index was found to be 5.45 ± 0.4 (treatment: DMSO) and 5.21 ± 0.25 (treatment: MLN4924 1 uM, 8 h). In the case of DARDGQSRTVRQFQFTDWPEQGVP [PTPRD], the protein stability index (treatment: DMSO) is 4.08 ± 0.61 and the protein stability index (treatment: MLN4924 1 uM, 8 h) was 4.32 ± 0.41. For DAWKRPDALPGQSKRLAVPCKLEK [TLE6] the same measures were 4.2 ± 0.17 and 4.28 ± 0.2. For DDKHYGGFTNKQLQSGQEYVFFVL [PTPRD] the same measures were 2.64 ± 0.53 and 2.55 ± 0.43. As for DEEVVATAGDRLTEFRKGAQSLPG [IRX6], the protein stability index reads like this: (treatment: DMSO) 5.12 ± 0.2; (treatment: MLN4924 1 uM, 8 h) 5.19 ± 0.22. With DERRDAEERASLAGNRNSMVIHIP [KCNK9], the protein stability index runs as follows: (treatment: DMSO) 4.24 ± 0.08; (treatment: MLN4924 1 uM, 8 h) 4.51 ± 0.086.

Regarding DFKNPIIEKYLRRQLTKPRPVILD [OAS1], the protein stability index is 2.46 ± 0.11 (treatment: DMSO) and 2.36 ± 0.2 (treatment: MLN4924 1 uM, 8 h). On to DFSMAEALNQEFLATRSNEKQELQ [PRPH], for which the protein stability index by setting is: (treatment: DMSO) 5.05 ± 0.19; (treatment: MLN4924 1 uM, 8 h) 4.95 ± 0.27. As to DIDGDVLVFLELAQFHCAYQLADW [RHOBTB2], the protein stability index was determined as 2.76 ± 0.47 (treatment: DMSO) and 3.23 ± 0.62 (treatment: MLN4924 1 uM, 8 h). For DIDQMFSTLLGEMDLLTQSLGVDT [APBB1IP] the same measures were 3.16 ± 0.5 and 2.76 ± 0.41. In the case of DIGKGAFSVVRRCVKLCTGHEYAA [CAMK2B], the protein stability index (treatment: DMSO) was found to be 1.93 ± 0.2 and the protein stability index (treatment: MLN4924 1 uM, 8 h) is 2.06 ± 0.37. On the same counts, the results for DISMEIDSPENMMRHIRFLKNEVE [CCDC6] are 4.09 ± 0.39 and 3.86 ± 0.33. On to DKLLKHMIIEHKIVIADVKLVADF [ZNF277], for which the protein stability index is, setting by setting: (treatment: DMSO) 3.07 ± 0.33; (treatment: MLN4924 1 uM, 8 h) 2.82 ± 0.72. On to DKRNYPSLELDKMAHGYGEESEEE [CHGB], for which the protein stability index by setting is: (treatment: DMSO) 5.63 ± 0.37; (treatment: MLN4924 1 uM, 8 h) 5.66 ± 0.19.

As to DPDEVARRWGKRKNKPKMNYEKLS [ETS1], the protein stability index by setting is: (treatment: DMSO) 4.51 ± 0.24; (treatment: MLN4924 1 uM, 8 h) 4.22 ± 0.35.

Consider DPFVCRLRHLSPTPSEEHMKNKNN [OR4A15], for which the protein stability index is, setting by setting: (treatment: DMSO) 4.73 ± 0.11; (treatment: MLN4924 1 uM, 8 h) 4.66 ± 0.1. For DPGLWSRLCRLAGASSPAAYDEAL [ZSWIM9] the same measures were 2.82 ± 0.15 and 2.78 ± 0.24. For DPVELRRLNFQTPGMASHPPIPIL [PTPRD] the same measures were 2.91 ± 0.19 and 3.04 ± 0.33. For DSDIPEIPPSSDRTPEILKKALSG [CDS1] the same measures were 5.2 ± 0.21 and 5.39 ± 0.19. As to DSEFSMQEPMVPAKLGTQAEKDRR [PPFIA4], the protein stability index by setting is: (treatment: DMSO) 4.9 ± 0.77; (treatment: MLN4924 1 uM, 8 h) 5.646 ± 0.045. DSGDSKDIRLTLMEEVLLLGLKDK [GOLPH3L]: the protein stability index was found to be 3.24 ± 0.19 (treatment: DMSO) and 3.25 ± 0.34 (treatment: MLN4924 1 uM, 8 h). Consider DSGTCPEVDEEGFTVRPDVTQNST [FCHO1], for which the protein stability index came to 5.43 ± 0.28 (treatment: DMSO) and 5.4 ± 0.15 (treatment: MLN4924 1 uM, 8 h). On the same counts, the results for DSSEEESHRVVLRPRGKERHKSGV [LYSMD4] are 5.21 ± 0.28 and 5.14 ± 0.11. For the sequence DTRRLITKPQNLNDAYGPPSNFLE [SNX3], the protein stability index reads like this: (treatment: DMSO) 3.69 ± 0.17; (treatment: MLN4924 1 uM, 8 h) 3.88 ± 0.17. With DTTELSSAERYNPRTNQWSPVVAM [KLHL20], the protein stability index reads like this: (treatment: DMSO) 3.5 ± 0.17; (treatment: MLN4924 1 uM, 8 h) 3.7 ± 0.19. For DVQSMPKTGILILILSIIFIEGYC [MAGEA10] the same measures were 2.86 ± 0.97 and 2.88 ± 1.2. On to DVVEDYKKRYEEEINKRTAAENEF [KRT71], for which the protein stability index is 5.13 ± 0.093 (treatment: DMSO) and 5.37 ± 0.3 (treatment: MLN4924 1 uM, 8 h). In the case of DWLRRPLGEDNQPETQLFWDKEPW [TLE6], the protein stability index reads like this: (treatment: DMSO) 3.35 ± 0.34; (treatment: MLN4924 1 uM, 8 h) 3.22 ± 0.43. Consider DYVHISSKPCDLHCTTVDGQRQLM [ADAMTSL2], for which the protein stability index (treatment: DMSO) was 3.45 ± 0.29 and the protein stability index (treatment: MLN4924 1 uM, 8 h) was found to be 3.44 ± 0.23. Consider EAEADEEADPPASDLPTPQAIEPQ [SNX8], for which the protein stability index by setting is: (treatment: DMSO) 5.62 ± 0.17; (treatment: MLN4924 1 uM, 8 h) 5.63 ± 0.26. Turning to EALITDPDEMRMQALLIRERILGP [FEM1A], the protein stability index (treatment: DMSO) is 3.56 ± 0.26 and the protein stability index (treatment: MLN4924 1 uM, 8 h) stood at 3.45 ± 0.26. Sequence EASQLRRLNIKKDDEFFHFVLLCF [TMEM40] yielded a protein stability index (treatment: DMSO) of 2.15 ± 0.25 and a protein stability index (treatment: MLN4924 1 uM, 8 h) of 2.22 ± 0.26.

Sequence EAVPEGPDGGGPWLEDEPGRGAQG [ZSWIM9] showed a protein stability index (treatment: DMSO) of 5.45 ± 0.52 and a protein stability index (treatment: MLN4924 1 uM, 8 h) of 5.56 ± 0.35. On the same counts, the results for EDLAQKLNLEEDRIQIWFQNRRAK [HESX1] are 4.12 ± 0.55 and 4.11 ± 0.47. On the same counts, the results for EDMLWDDLLHGPECRSSVTSDSEG [PHTF1] are 5.07 ± 0.3 and 5.16 ± 0.16.

For the sequence EDPDYYGQEIWSREPYYARPEPEL [CPXM2], for the setting “treatment: DMSO”, the protein stability index amounted to 4.38 ± 0.11.

On to EEAEELAKEMSVPFYTSRIDEVLL [GFOD1], for which the protein stability index was 3.83 ± 0.24 (treatment: DMSO) and 4.11 ± 0.33 (treatment: MLN4924 1 uM, 8 h). For EEANADLEVKIHDWYQKQTPTSPE [KRT15] the same measures were 5.33 ± 0.23 and 5.29 ± 0.16. As to EEDNDDAKILPSPVQGSSEDNLSL [DRICH1], the protein stability index came to 5.57 ± 0.25 (treatment: DMSO) and 5.55 ± 0.17 (treatment: MLN4924 1 uM, 8 h). On the same counts, the results for EELEEALEVERQENEQRRLFIQKE [MNAT1] are 5.05 ± 0.24 and 5 ± 0.16. For EEPTERGNLEVGEPQSEPVRVLDM [FBXO34] the same measures were 5.34 ± 0.17 and 5.5 ± 0.16. Regarding EEQRVEQQTKLEAEKLKVQALKDR [LSM1], the protein stability index came out at 5.55 ± 0.28 (treatment: DMSO) and 5.36 ± 0.12 (treatment: MLN4924 1 uM, 8 h).

Regarding EESYYCRCHRGYTLDPNGKTCSRV [MATN2], the protein stability index is, setting by setting: (treatment: DMSO) 2.82 ± 0.53; (treatment: MLN4924 1 uM, 8 h) 3.09 ± 0.55.

As to EEVAKAVLEQEETAAASRERQEEQ [EPB41L3], the protein stability index (treatment: DMSO) came to 5.71 ± 0.078 and the protein stability index (treatment: MLN4924 1 uM, 8 h) was 5.63 ± 0.19.

EFMKDRLYFATLRNRPKSTVNTHY [CDC14A] had a protein stability index (treatment: DMSO) of 2.11 ± 0.23 and a protein stability index (treatment: MLN4924 1 uM, 8 h) of 2.17 ± 0.59.

For the sequence EFSTSLFSGSLEPVACGSVLSEGS [SRPK2], the protein stability index turned out to be 3.98 ± 0.19 (treatment: DMSO) and 4.04 ± 0.26 (treatment: MLN4924 1 uM, 8 h). For the sequence EGAQLKKVEQNSRPVSCSGRDALL [WASL], the protein stability index is 4.53 ± 0.39 (treatment: DMSO) and 4.72 ± 0.48 (treatment: MLN4924 1 uM, 8 h). For EGDATRDPGPEPEEEPGVRNGMAS [PSD2] the same measures were 5.7 ± 0.16 and 5.38 ± 0.34. For EGGIFTSPNYPSKYPPDRECIYII [NETO1] the same measures were 2.76 ± 0.94 and 2.95 ± 0.7.

As for EGSDYINASFIDGYRQQKAYIATQ [PTPRD], the protein stability index was determined as 3.18 ± 0.25 (treatment: DMSO) and 3.34 ± 0.23 (treatment: MLN4924 1 uM, 8 h). For EGSPRNLGTPTSSTPRPSITPTKK [C2CD2L] the same measures were 5.35 ± 0.19 and 5.34 ± 0.17. On to EHPGGEEVLREQAGGDATENFEDV [CYB5A], for which the protein stability index is, setting by setting: (treatment: DMSO) 5.47 ± 0.2; (treatment: MLN4924 1 uM, 8 h) 5.54 ± 0.24. For the sequence EIDTQGRHLAHSMLQRAIAYQHSG [C10orf62], the protein stability index by setting is: (treatment: DMSO) 2.91 ± 0.24; (treatment: MLN4924 1 uM, 8 h) 3.15 ± 0.28.
